# From US5622933A, “Multiple branch peptide constructions for use against HIV” (priority 1993, dated 1997)
# Values joined by “and” are separate entries in the source; they are usually repeats but may differ in a detail not shown here. Equal values may be shown once.
# Tests used:
# HIV = experiment: Infection of HT-29 human colon cells through the GalCer receptor; assay type: cell-based
# Protocol: The activity of MBPCs was evaluated on this alternative infection route as follows: HT-29 cells (5×10^5 cells) were incubated with MBPCs (5×10^-6 M) for 45 minutes and subsequently exposed to 100 TCID50 of HIV-1 (LAI), HIV-1 (NDK) or HIV-2 (ROD) for 1 hour at 37° C. The residual inoculum was inactivated by three successive trypsinations and infection was assessed by: i) direct measurement of HIV-1 p24^gag (for HIV-1 isolates) and RT activity (for HIV-1 and HIV-2 isolates) in the culture supernatants; ii) co-cultivation with human PBLs. The cells were treated with the MBPCs as follows: 1- none; 2- [GPGRAF]8 -MLC; 3- [GPGRAF]8 -MLCD; 4- [GPG(R)DAF]8 -MLC; 5- [GPGRAF]16 -MLC; 6- [[…]]4 -MLC; and 7- [[…]]4 -MLC, with all amino acids in L form unless noted otherwise. The results shown in FIG. 5A, which correspond to infection with HIV-1 (NDK), are representative of three separate experiments and the MBPC used is indicated by the number on the x-axis. The concentration of p24^gag (pg/ml) was measured during the co-culture experiment with PBLs (+++, >10 ng/ml 10 days post-infection; ++, >1 ng/ml 13 days post-infection; +, >1 ng/ml 16 days post-infection; -, no detectable p24^gag 1 month post-infection). Similar results were obtained with HIV-1 (LAI) and HIV-2 (ROD).
# GalCer receptor = experiment: Binding of gp120 to GalCer (HPTLC binding assay)
# Protocol: In another experiment with the same MBPCs, the effect of MBPCs on the binding of gp120 to GalCer was analyzed using a high performance thin layer chromatography (HPTLC) binding assay. MBPCs (10^-4 M) were preincubated with GalCer for 1 hour at room temperature. After thorough washing, the HPTLC plates were incubated with HIV-1 recombinant gp120 (2.5 ug/ml) followed by rabbit anti-gp120 and ^125 I-goat anti-rabbit IgG. The plates were washed in PBS and exposed to Amersham Hyperfilm MP for 8 hours. As shown in FIG. 5B treatment of HT-29 cells with active MBPCs protected the cells from infection by HIV-1 (NDK isolate). This antiviral effect was correlated with its ability to block the binding of gp120 to GalCer.
# New Zealand rabbits = experiment: Immunogenicity in rabbits (serum ELISA for anti MBPC.3 antibodies); assay type: in vivo, rabbit
# Protocol: […] This procedure was repeated subcutaneously with incomplete Freud's adjuvant on days 30, 60, 90 and 120. Sera were tested by ELISA, looking for specific anti MBPC.3 antibodies. Data presented here is from the last serum samples (120+7 days).
# […] After saturation with 400 μL of casein (5 g/100 ml), different serum dilutions were added for 2 hours at 37° C. The controls were sera from non-immunized rabbits and mice. After rinsing (5×), 50 μl of 1:5000 of peroxidase-labeled swine anti-rabbit IgG or anti-mouse IgG (Dakopatts, Copenhagen, Denmark) were added for 1 hour at 37° C. After further rinsing (5×), 100 μl of ortho-phenylenediamine were added for 30 min in the dark at room temperature. The reaction was stopped by adding 50 μl of 4N sulfuric acid, and optical density (OD) ratios were determined at 492/620 nm.
substance,measurement,setting,value
(GPGRAF)8 -(K)4 -(K)2 -K-βA-OH [MBPC.3],block of the infectivity of HIV on human colon cells,HIV,completely block
same,binding to / activity on the Galactosyl Ceramide receptor,GalCer receptor,bind to the second receptor
same,optical density (OD) ratio 492/620 nm (×10^3),"New Zealand rabbits; plate 1, rabbit serum 10^-2, coat 0.5 μg MBPC.3/ml",968 and 981
same,optical density (OD) ratio 492/620 nm (×10^3),"New Zealand rabbits; plate 1, rabbit serum 10^-2, coat 1 μg MBPC.3/ml",1280 and 1267
same,optical density (OD) ratio 492/620 nm (×10^3),"New Zealand rabbits; plate 1, rabbit serum 10^-2, coat 5 μg MBPC.3/ml",2000
same,optical density (OD) ratio 492/620 nm (×10^3),"New Zealand rabbits; plate 1, rabbit serum 10^-2, coat 10 μg MBPC.3/ml",2000
same,optical density (OD) ratio 492/620 nm (×10^3),"New Zealand rabbits; plate 1, rabbit serum 10^-3, coat 0.5 μg MBPC.3/ml",318 and 296
same,optical density (OD) ratio 492/620 nm (×10^3),"New Zealand rabbits; plate 1, rabbit serum 10^-3, coat 1 μg MBPC.3/ml",346 and 349
same,optical density (OD) ratio 492/620 nm (×10^3),"New Zealand rabbits; plate 1, rabbit serum 10^-3, coat 5 μg MBPC.3/ml",2000
same,optical density (OD) ratio 492/620 nm (×10^3),"New Zealand rabbits; plate 1, rabbit serum 10^-3, coat 10 μg MBPC.3/ml",2000
same,optical density (OD) ratio 492/620 nm (×10^3),"New Zealand rabbits; plate 1, rabbit serum 10^-4, coat 0.5 μg MBPC.3/ml",145 and 140
same,optical density (OD) ratio 492/620 nm (×10^3),"New Zealand rabbits; plate 1, rabbit serum 10^-4, coat 1 μg MBPC.3/ml",182 and 193
same,optical density (OD) ratio 492/620 nm (×10^3),"New Zealand rabbits; plate 1, rabbit serum 10^-4, coat 5 μg MBPC.3/ml",796 and 809
same,optical density (OD) ratio 492/620 nm (×10^3),"New Zealand rabbits; plate 1, rabbit serum 10^-4, coat 10 μg MBPC.3/ml",924 and 823
same,optical density (OD) ratio 492/620 nm (×10^3),"New Zealand rabbits; plate 2, rabbit serum 10^-2, coat 5 μg MBPC.3/ml",2000
same,optical density (OD) ratio 492/620 nm (×10^3),"New Zealand rabbits; plate 2, rabbit serum 10^-2, coat 10 μg MBPC.3/ml",2000
same,optical density (OD) ratio 492/620 nm (×10^3),"New Zealand rabbits; plate 2, rabbit serum 10^-3, coat 0.5 μg MBPC.3/ml",197 and 181
same,optical density (OD) ratio 492/620 nm (×10^3),"New Zealand rabbits; plate 2, rabbit serum 10^-3, coat 5 μg MBPC.3/ml",2000
same,optical density (OD) ratio 492/620 nm (×10^3),"New Zealand rabbits; plate 2, rabbit serum 10^-3, coat 10 μg MBPC.3/ml",2000
same,optical density (OD) ratio 492/620 nm (×10^3),"New Zealand rabbits; plate 2, rabbit serum 10^-4, coat 0.5 μg MBPC.3/ml",80 and 74
same,optical density (OD) ratio 492/620 nm (×10^3),"New Zealand rabbits; plate 2, rabbit serum 10^-4, coat 1 μg MBPC.3/ml",113 and 84
same,optical density (OD) ratio 492/620 nm (×10^3),"New Zealand rabbits; plate 2, rabbit serum 10^-4, coat 5 μg MBPC.3/ml",678 and 626
same,optical density (OD) ratio 492/620 nm (×10^3),"New Zealand rabbits; plate 2, rabbit serum 10^-4, coat 10 μg MBPC.3/ml",734 and 689
same,optical density (OD) ratio 492/620 nm (×10^3),"New Zealand rabbits; plate 3, rabbit serum 10^-2, coat 0.5 μg MBPC.3/ml",416 and 287
same,optical density (OD) ratio 492/620 nm (×10^3),"New Zealand rabbits; plate 3, rabbit serum 10^-2, coat 1 μg MBPC.3/ml",402 and 401
same,optical density (OD) ratio 492/620 nm (×10^3),"New Zealand rabbits; plate 3, rabbit serum 10^-2, coat 5 μg MBPC.3/ml",857 and 868
same,optical density (OD) ratio 492/620 nm (×10^3),"New Zealand rabbits; plate 3, rabbit serum 10^-2, coat 10 μg MBPC.3/ml",818 and 953
same,optical density (OD) ratio 492/620 nm (×10^3),"New Zealand rabbits; plate 3, rabbit serum 10^-3, coat 0.5 μg MBPC.3/ml",148 and 155
same,optical density (OD) ratio 492/620 nm (×10^3),"New Zealand rabbits; plate 3, rabbit serum 10^-3, coat 1 μg MBPC.3/ml",168 and 150
same,optical density (OD) ratio 492/620 nm (×10^3),"New Zealand rabbits; plate 3, rabbit serum 10^-3, coat 5 μg MBPC.3/ml",323 and 314
same,optical density (OD) ratio 492/620 nm (×10^3),"New Zealand rabbits; plate 3, rabbit serum 10^-3, coat 10 μg MBPC.3/ml",342 and 328
same,optical density (OD) ratio 492/620 nm (×10^3),"New Zealand rabbits; plate 3, rabbit serum 10^-4, coat 0.5 μg MBPC.3/ml",64 and 69
same,optical density (OD) ratio 492/620 nm (×10^3),"New Zealand rabbits; plate 3, rabbit serum 10^-4, coat 1 μg MBPC.3/ml",72 and 89
same,optical density (OD) ratio 492/620 nm (×10^3),"New Zealand rabbits; plate 3, rabbit serum 10^-4, coat 5 μg MBPC.3/ml",170 and 169
same,optical density (OD) ratio 492/620 nm (×10^3),"New Zealand rabbits; plate 3, rabbit serum 10^-4, coat 10 μg MBPC.3/ml",191 and 184
same,optical density (OD) ratio 492/620 nm (×10^3),"New Zealand rabbits; plate 4, rabbit serum 10^-2, coat 0.5 μg MBPC.3/ml",424 and 425
same,optical density (OD) ratio 492/620 nm (×10^3),"New Zealand rabbits; plate 4, rabbit serum 10^-2, coat 1 μg MBPC.3/ml",419 and 447
same,optical density (OD) ratio 492/620 nm (×10^3),"New Zealand rabbits; plate 4, rabbit serum 10^-2, coat 5 μg MBPC.3/ml",749 and 792
same,optical density (OD) ratio 492/620 nm (×10^3),"New Zealand rabbits; plate 4, rabbit serum 10^-2, coat 10 μg MBPC.3/ml",849 and 843
same,optical density (OD) ratio 492/620 nm (×10^3),"New Zealand rabbits; plate 4, rabbit serum 10^-3, coat 0.5 μg MBPC.3/ml",163 and 154
same,optical density (OD) ratio 492/620 nm (×10^3),"New Zealand rabbits; plate 4, rabbit serum 10^-3, coat 1 μg MBPC.3/ml",221 and 151
same,optical density (OD) ratio 492/620 nm (×10^3),"New Zealand rabbits; plate 4, rabbit serum 10^-3, coat 5 μg MBPC.3/ml",310 and 304
same,optical density (OD) ratio 492/620 nm (×10^3),"New Zealand rabbits; plate 4, rabbit serum 10^-3, coat 10 μg MBPC.3/ml",332 and 314
same,titers of anti-GPGRAF antibodies,New Zealand rabbits; rabbits injected,did not produce significant titers
